Data reported in patent publication US20230159662A1 (Kyowa Kirin, published 2023).
Residue numbers refer to the chain shown, from its start. Names may count otherwise.

B1: human IgG1 anti-human CCR4 antibody (KM2160), S298A/E333A/K334A (AAA) (antibody)
heavy: EVQLVESGGDLMKPGGSLKISCAASGFIFSNYGMSWVRQTPDMRLEWVATISSASTYSYYPDSVKGRFTISRDNAENSLYLQMNSLRSEDTGIYYCGRHSDGNFAFGYWGRGTLVTVSAASTKGPSVFPLAPSSKSTSGGTAALGCLVKDYFPEPVTVSWNSGALTSGVHTFPAVLQSSGLYSLSSVVTVPSSSLGTQTYICNVNHKPSNTKVDKKVEPKSCDKTHTCPPCPAPELLGGPSVFLFPPKPKDTLMISRTPEVTCVVVDVSHEDPEVKFNWYVDGVEVHNAKTKPREEQYNATYRVVSVLTVLHQDWLNGKEYKCKVSNKALPAPIAATISKAKGQPREPQVYTLPPSRDELTKNQVSLTCLVKGFYPSDIAVEWESNGQPENNYKTTPPVLDSDGSFFLYSKLTVDKSRWQQGNVFSCSVMHEALHNHYTQKSLSLSPGK
light: DVLMTQTPLSLPVSLGDQASISCRSSRNIVHINGDTYLEWYLQRPGQSPKLLIYKVSNRFSGVPDRFSGSGSGTDFTLKISRVEAEDLGVYYCFQGSLLPWTFGGGTRLEIRRTVAAPSVFIFPPSDEQLKSGTASVVCLLNNFYPREAKVQWKVDNALQSGNSQESVTEQDSKDSTYSLSSTLTLSKADYEKHKVYACEVTHQGLSSPVTKSFNRGEC
B2: human IgG1 anti-human CCR4 antibody (KM2160), S298A/E333A/K334A (AAA)/P247L (antibody)
heavy: B1 heavy with P249L
light: B1 light
B3: human IgG1 anti-human CCR4 antibody (KM2160), S298A/E333A/K334A (AAA)/E258H (antibody)
heavy: B1 heavy with E260H
light: B1 light
B4: human IgG1 anti-human CCR4 antibody (KM2160), S298A/E333A/K334A (AAA)/A339T (antibody)
heavy: B1 heavy with A341T
light: B1 light
B5: human IgG1 anti-human CCR4 antibody (KM2160), printed as S298A/E333A/K334A, CH of SEQ ID NO 120 (antibody)
heavy: B1 heavy with A300T
light: B1 light
B6: human IgG1 anti-human CCR4 antibody (KM2160), S298A/E333A/K334A (AAA)/A330F (antibody)
heavy: B1 heavy with A332F
light: B1 light
B7: human IgG1 anti-human CCR4 antibody (KM2160), S298A/E333A/K334A (AAA)/S239D/I332E (antibody)
heavy: B1 heavy with S241D, I334E
light: B1 light
B8: human IgG1 anti-human CCR4 antibody (KM2160), S298A/E333A/K334A (AAA)/Q295T (antibody)
heavy: B1 heavy with Q297T
light: B1 light
B9: human IgG1 anti-human CCR4 antibody (KM2160), S298A/E333A/K334A (AAA)/L235T (antibody)
heavy: B1 heavy with L237T
light: B1 light
B10: human IgG1 anti-human CCR4 antibody (KM2160), S298A/E333A/K334A (AAA)/S239D (antibody)
heavy: B1 heavy with S241D
light: B1 light
B11: human IgG1 anti-human CCR4 antibody (KM2160), S298A/E333A/K334A (AAA)/R293P (antibody)
heavy: B1 heavy with R294P
light: B1 light
B12: human IgG1 anti-human CCR4 antibody (KM2160), S298A/E333A/K334A (AAA)/E283L (antibody)
heavy: B1 heavy with E285L
light: B1 light
B13: human IgG1 anti-human CCR4 antibody (KM2160), S298A/E333A/K334A (AAA)/V379M (antibody)
heavy: B1 heavy with V381M
light: B1 light
B14: human IgG1 anti-human CCR4 antibody (KM2160), S239D/A330F (antibody)
heavy: not shown
light: B1 light
B15: human IgG1 anti-human CCR4 antibody (KM2160), S298A/E333A/K334E (antibody)
heavy: B1 heavy with A336E
light: B1 light
B16: human IgG1 anti-human CCR4 antibody (KM2160), S298A/E333A/K334A (AAA)/A327D (antibody)
heavy: B1 heavy with A329D
light: B1 light
B17: human IgG1 anti-human CCR4 antibody (KM2160), S298A/E333A/K334A (AAA)/F372Y (antibody)
heavy: B1 heavy with F374Y
light: B1 light
B18: human IgG1 anti-human CCR4 antibody (KM2160), S298A/E333A/R292L/K334E (antibody)
heavy: B1 heavy with R294L, A336E
light: B1 light
B19: human IgG1 anti-human CCR4 antibody (KM2160), S239D (antibody)
heavy: not shown
light: B1 light
B20: human IgG1 anti-human CCR4 antibody (KM2160), S298A/E333A/K334A (AAA)/D265G (antibody)
heavy: B1 heavy with D267G
light: B1 light
B21: human IgG1 anti-human CCR4 antibody (KM2160), S298A/E333A/K334A (AAA)/P329R (antibody)
heavy: B1 heavy with P331R
light: B1 light
B22: human IgG1 anti-human CCR4 antibody (KM2160), S239D/I332E (DE) (antibody)
heavy: not shown
light: B1 light
B23: human IgG1 anti-human CCR4 antibody (KM2160), S239E (antibody)
heavy: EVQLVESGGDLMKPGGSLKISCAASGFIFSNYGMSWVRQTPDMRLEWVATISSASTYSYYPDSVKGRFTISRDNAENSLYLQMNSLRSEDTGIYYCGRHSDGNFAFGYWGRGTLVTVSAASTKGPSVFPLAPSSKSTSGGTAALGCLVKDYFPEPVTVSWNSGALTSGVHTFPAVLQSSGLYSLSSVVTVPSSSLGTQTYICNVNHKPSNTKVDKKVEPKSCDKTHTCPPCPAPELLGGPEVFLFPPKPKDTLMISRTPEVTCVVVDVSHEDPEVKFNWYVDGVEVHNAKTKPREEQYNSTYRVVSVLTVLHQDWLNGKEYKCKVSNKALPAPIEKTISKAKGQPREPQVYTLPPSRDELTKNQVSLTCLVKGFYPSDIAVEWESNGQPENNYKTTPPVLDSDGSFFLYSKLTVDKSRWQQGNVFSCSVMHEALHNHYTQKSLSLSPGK
light: B1 light
B24: human IgG1 anti-human CCR4 antibody (KM2160), S239D/K326T (antibody)
heavy: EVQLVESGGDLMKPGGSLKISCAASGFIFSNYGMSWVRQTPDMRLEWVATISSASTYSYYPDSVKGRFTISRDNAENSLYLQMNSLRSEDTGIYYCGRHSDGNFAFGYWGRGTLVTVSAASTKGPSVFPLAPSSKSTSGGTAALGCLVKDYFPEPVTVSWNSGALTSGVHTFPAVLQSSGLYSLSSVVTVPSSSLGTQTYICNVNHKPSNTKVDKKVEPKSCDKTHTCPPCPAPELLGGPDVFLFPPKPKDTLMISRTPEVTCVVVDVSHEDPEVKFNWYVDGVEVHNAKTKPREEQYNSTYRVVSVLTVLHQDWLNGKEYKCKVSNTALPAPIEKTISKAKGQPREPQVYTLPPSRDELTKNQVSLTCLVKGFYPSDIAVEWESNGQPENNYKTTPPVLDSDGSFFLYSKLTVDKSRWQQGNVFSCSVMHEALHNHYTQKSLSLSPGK
light: B1 light
B25: human IgG1 anti-human CCR4 antibody (KM2160), S298A/E333A/K334A (AAA)/H268E (antibody)
heavy: B1 heavy with H270E
light: B1 light
B26: human IgG1 anti-human CCR4 antibody (KM2160), S298A/E333A/K334A (AAA)/K326T (antibody)
heavy: B1 heavy with K328T
light: B1 light
B27: human IgG1 anti-human CCR4 antibody (KM2160), S298A/E333A/K334A (AAA)/K248M (antibody)
heavy: B1 heavy with K250M
light: B1 light
B28: human IgG1 anti-human CCR4 antibody (KM2160), S298A/E333A/K334A (AAA)/P247L/N421K (antibody)
heavy: B1 heavy with P249L, N423K
light: B1 light
B29: human IgG1 anti-human CCR4 antibody (KM2160), S298A/E333A/K334A (AAA)/F243L (antibody)
heavy: B1 heavy with F245L
light: B1 light
B30: human IgG1 anti-human CCR4 antibody (KM2160), S298A/E333A/K334A (AAA)/E294W (antibody)
heavy: B1 heavy with E296W
light: B1 light
B31: human IgG1 anti-human CCR4 antibody (KM2160), S298A/E333A/K334A (AAA)/G236S (antibody)
heavy: B1 heavy with G238S
light: B1 light
B32: human IgG1 anti-human CCR4 antibody (KM2160), S239D/K326E (antibody)
heavy: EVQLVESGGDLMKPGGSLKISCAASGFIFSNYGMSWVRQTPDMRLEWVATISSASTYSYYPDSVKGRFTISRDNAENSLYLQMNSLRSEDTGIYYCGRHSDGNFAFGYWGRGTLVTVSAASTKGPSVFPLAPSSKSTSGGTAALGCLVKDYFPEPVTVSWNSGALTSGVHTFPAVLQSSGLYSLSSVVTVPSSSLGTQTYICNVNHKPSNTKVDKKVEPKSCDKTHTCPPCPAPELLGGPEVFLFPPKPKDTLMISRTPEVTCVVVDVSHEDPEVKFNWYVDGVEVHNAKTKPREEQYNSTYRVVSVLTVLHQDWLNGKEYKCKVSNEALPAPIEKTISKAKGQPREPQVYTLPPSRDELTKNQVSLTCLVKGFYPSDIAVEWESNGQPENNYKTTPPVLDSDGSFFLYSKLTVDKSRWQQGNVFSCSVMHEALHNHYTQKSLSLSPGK
light: B1 light
B33: human IgG1 anti-human CCR4 antibody (KM2160), S239D/I332L (antibody)
heavy: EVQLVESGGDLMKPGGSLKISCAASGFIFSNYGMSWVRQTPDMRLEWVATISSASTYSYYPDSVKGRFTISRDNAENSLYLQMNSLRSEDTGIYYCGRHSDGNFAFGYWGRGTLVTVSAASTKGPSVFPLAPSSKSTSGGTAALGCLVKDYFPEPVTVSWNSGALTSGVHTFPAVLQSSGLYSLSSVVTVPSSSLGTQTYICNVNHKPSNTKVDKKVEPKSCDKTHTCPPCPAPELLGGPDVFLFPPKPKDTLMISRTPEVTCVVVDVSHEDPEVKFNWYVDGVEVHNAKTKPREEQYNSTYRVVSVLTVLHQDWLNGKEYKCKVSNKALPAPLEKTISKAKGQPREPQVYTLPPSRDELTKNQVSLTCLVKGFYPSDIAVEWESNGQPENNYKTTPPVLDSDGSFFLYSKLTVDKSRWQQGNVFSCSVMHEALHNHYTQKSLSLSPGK
light: B1 light
B34: human IgG1 anti-human CCR4 antibody (KM2160), S239D/L326I (as printed) (antibody)
heavy: not shown
light: B1 light
B35: human IgG1 anti-human CCR4 antibody (KM2160), S239D/I332F (antibody)
heavy: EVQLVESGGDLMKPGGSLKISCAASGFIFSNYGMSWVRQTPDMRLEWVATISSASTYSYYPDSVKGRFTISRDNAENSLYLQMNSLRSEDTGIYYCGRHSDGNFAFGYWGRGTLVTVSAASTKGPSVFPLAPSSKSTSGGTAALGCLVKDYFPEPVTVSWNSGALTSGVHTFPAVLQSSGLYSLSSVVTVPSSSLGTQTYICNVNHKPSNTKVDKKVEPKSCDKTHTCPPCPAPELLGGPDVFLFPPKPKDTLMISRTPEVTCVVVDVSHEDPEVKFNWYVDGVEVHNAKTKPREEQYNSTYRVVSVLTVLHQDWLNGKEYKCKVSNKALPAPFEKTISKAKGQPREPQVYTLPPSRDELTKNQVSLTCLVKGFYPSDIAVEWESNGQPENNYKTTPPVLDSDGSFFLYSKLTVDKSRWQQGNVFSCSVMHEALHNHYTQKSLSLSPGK
light: B1 light
B36: human IgG1 anti-human CCR4 antibody (KM2160), S239D/I332H (antibody)
heavy: not shown
light: B1 light
B37: human IgG1 anti-human CCR4 antibody (KM2160), S239D/I332Y (antibody)
heavy: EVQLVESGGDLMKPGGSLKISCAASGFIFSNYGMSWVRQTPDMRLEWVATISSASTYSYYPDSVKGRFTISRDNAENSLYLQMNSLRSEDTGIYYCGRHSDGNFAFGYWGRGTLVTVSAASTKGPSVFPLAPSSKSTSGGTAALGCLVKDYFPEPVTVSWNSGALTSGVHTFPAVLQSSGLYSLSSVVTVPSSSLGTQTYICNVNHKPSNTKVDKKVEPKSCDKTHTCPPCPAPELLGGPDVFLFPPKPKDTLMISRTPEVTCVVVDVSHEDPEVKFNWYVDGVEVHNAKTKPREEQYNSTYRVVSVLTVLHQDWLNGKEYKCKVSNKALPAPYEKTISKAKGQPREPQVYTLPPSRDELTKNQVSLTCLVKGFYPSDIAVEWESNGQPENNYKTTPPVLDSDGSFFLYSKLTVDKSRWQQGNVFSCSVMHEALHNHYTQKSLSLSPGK
light: B1 light
B38: human IgG1 anti-human CCR4 antibody (KM2160), S239D/I332A (antibody)
heavy: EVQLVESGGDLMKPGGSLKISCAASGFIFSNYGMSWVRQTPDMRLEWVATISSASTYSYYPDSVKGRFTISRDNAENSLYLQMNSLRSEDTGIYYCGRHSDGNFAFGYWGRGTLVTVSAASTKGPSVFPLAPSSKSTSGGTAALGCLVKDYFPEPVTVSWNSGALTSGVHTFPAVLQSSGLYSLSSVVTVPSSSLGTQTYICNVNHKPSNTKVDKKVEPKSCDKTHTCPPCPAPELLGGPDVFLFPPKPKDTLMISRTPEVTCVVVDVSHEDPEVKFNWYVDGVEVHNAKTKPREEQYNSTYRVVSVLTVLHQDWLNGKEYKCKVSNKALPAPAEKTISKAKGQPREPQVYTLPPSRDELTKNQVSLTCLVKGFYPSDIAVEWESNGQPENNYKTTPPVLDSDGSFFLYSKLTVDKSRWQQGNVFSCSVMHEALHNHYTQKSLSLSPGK
light: B1 light
B39: human IgG1 anti-human CCR4 antibody (KM2160), S239D/K326L (antibody)
heavy: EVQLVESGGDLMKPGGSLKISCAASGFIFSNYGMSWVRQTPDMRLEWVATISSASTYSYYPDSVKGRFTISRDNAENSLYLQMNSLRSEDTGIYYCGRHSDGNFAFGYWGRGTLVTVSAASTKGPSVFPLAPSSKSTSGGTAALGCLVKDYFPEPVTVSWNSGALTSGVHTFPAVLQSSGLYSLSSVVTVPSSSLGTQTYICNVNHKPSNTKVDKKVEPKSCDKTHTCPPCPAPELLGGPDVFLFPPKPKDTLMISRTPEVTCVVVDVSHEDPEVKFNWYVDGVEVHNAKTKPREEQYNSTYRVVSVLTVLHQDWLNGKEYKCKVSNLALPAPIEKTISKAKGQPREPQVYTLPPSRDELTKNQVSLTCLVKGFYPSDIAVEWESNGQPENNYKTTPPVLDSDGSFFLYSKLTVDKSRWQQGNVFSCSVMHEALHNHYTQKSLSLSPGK
light: B1 light
B40: human IgG1 anti-human CCR4 antibody (KM2160), S239D/I332T (antibody)
heavy: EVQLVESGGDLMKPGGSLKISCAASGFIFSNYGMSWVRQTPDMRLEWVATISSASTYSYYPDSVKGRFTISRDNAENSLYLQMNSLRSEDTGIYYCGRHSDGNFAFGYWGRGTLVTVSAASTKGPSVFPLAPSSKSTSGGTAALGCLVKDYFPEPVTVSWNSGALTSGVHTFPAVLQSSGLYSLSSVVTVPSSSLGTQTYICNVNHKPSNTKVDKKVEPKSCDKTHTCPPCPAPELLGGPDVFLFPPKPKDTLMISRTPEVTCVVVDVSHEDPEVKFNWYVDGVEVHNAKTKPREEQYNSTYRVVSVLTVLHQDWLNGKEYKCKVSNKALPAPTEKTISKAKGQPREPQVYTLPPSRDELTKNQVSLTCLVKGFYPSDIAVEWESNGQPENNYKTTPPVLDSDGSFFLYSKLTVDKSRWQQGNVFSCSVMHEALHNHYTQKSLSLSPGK
light: B1 light
B41: human IgG1 anti-human CCR4 antibody (KM2160), S239D/I332W (antibody)
heavy: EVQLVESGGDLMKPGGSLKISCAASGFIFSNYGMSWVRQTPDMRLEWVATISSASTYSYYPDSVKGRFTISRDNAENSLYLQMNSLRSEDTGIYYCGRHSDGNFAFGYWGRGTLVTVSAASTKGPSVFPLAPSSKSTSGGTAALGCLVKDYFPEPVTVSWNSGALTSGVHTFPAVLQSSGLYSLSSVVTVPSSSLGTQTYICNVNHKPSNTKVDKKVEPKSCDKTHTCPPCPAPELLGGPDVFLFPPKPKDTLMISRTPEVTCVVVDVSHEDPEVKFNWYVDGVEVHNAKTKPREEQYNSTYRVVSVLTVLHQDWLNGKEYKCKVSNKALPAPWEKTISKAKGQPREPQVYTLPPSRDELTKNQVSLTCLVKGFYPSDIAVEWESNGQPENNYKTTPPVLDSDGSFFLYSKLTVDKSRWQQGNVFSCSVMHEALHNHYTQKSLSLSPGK
light: B1 light
B42: human IgG1 anti-human CCR4 antibody (KM2160), S239D/I332D (antibody)
heavy: not shown
light: B1 light

target: T1, human CD16a (Val type) stably expressed on NK-92 cells (NK-92/CD16 transfectant) (human, UniProt P08637 17-254); assay: cell-based or functional assay
T1 sequence (P08637 17-254 F176V): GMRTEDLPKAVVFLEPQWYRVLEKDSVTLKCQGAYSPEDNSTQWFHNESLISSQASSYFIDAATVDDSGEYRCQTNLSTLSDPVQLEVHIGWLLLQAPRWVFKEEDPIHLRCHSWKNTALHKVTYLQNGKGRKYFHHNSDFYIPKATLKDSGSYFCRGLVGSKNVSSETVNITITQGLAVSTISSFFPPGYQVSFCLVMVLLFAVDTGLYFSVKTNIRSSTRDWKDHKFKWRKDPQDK

Row | relative ADCC activity (AAA = 100) | Binder
1 | 100 relative, AAA at 0.1 µg/mL = 100 | B1
2 | 160 relative, AAA at 0.1 µg/mL = 100 | B2
3 | 94 relative, AAA at 0.1 µg/mL = 100 | B3
4 | 36 relative, AAA at 0.1 µg/mL = 100 | B4
5 | -97 relative, AAA at 0.1 µg/mL = 100 | B5
6 | 96 relative, AAA at 0.1 µg/mL = 100 | B6
7 | 119 relative, AAA at 0.1 µg/mL = 100 | B7
8 | 4 relative, AAA at 0.1 µg/mL = 100 | B8
9 | -69 relative, AAA at 0.1 µg/mL = 100 | B9
10 | 291 relative, AAA at 0.1 µg/mL = 100 | B10
11 | 125 relative, AAA at 0.1 µg/mL = 100 | B11
12 | 82 relative, AAA at 0.1 µg/mL = 100 | B12
13 | 51 relative, AAA at 0.1 µg/mL = 100 | B13
14 | 161 relative, AAA at 0.1 µg/mL = 100 | B14
15 | 114 relative, AAA at 0.1 µg/mL = 100 | B15
16 | -28 relative, AAA at 0.1 µg/mL = 100 | B16

Row | relative ADCC activity (AAA = 100) | Binder
17 | 70 relative, AAA at 0.1 µg/mL = 100 | B17
18 | 163 relative, AAA at 0.1 µg/mL = 100 | B18
19 | 116 relative, AAA at 0.1 µg/mL = 100 | B19
20 | -89 relative, AAA at 0.1 µg/mL = 100 | B20
21 | 5 relative, AAA at 0.1 µg/mL = 100 | B21
22 | 201 relative, AAA at 0.1 µg/mL = 100 | B22
23 | 88 relative, AAA at 0.1 µg/mL = 100 | B23
24 | 179 relative, AAA at 0.1 µg/mL = 100 | B24
25 | 164 relative, AAA at 0.1 µg/mL = 100 | B25
26 | 136 relative, AAA at 0.1 µg/mL = 100 | B26
27 | 165 relative, AAA at 0.1 µg/mL = 100 | B27
28 | 175 relative, AAA at 0.1 µg/mL = 100 | B28
29 | 79 relative, AAA at 0.1 µg/mL = 100 | B29
30 | 171 relative, AAA at 0.1 µg/mL = 100 | B30
31 | -46 relative, AAA at 0.1 µg/mL = 100 | B31

target: T1, human CD16a (Val type) stably expressed …; assay: cell-based or functional assay; remark: another data set of the same source

Row | relative ADCC activity (AAA = 100) | Binder
32 | 147 relative, AAA at 0.1 µg/mL = 100 | B32
33 | 82 relative, AAA at 0.1 µg/mL = 100 | B33
34 | 146 relative, AAA at 0.1 µg/mL = 100 | B34
35 | 93 relative, AAA at 0.1 µg/mL = 100 | B35
36 | 84 relative, AAA at 0.1 µg/mL = 100 | B36
37 | 123 relative, AAA at 0.1 µg/mL = 100 | B37
38 | 94 relative, AAA at 0.1 µg/mL = 100 | B38
39 | 113 relative, AAA at 0.1 µg/mL = 100 | B39
40 | 72 relative, AAA at 0.1 µg/mL = 100 | B40
41 | 94 relative, AAA at 0.1 µg/mL = 100 | B41
42 | 150 relative, AAA at 0.1 µg/mL = 100 | B42
